One test has as its target T1, MDM2 (human, UniProt Q00987 1-138, limits assumed).
T1 construct: also called HDM2; human double minute 2
The test can be described thus: IC50 against MDM2; assay format and competitor not described with the table.

The target in test [1] is T2, MCL-1 (Myeloid cell leukemia 1) (UniProt Q07820 172-327, limits assumed).
T2 construct: Construct used in the IC50 assay is not described
In words: IC50 against MCL-1, Table 4b; assay format not stated.

A further test addresses T3, BCL-XL (UniProt Q07817 1-209).
T3 construct: Construct used in the IC50 assay is not described; also called BCL-X1
In words: IC50 against BCL-XL, Table 4b; assay format not stated.

Bridge positions count the residues as written; N and C are the ends. Square brackets hold non-standard residues; d marks the D form. Phe(4-F) = N[C@@H](Cc1ccc(F)cc1)C(=O)O; R8 = C=CCCCCCC[C@@](C)(N)C(=O)O; hLeu = CC(C)CC[C@H](N)C(=O)O; S5 = C=CCCC[C@](C)(N)C(=O)O; Nle = CCCC[C@H](N)C(=O)O

From US20230127248A1 (AILERON THERAPEUTICS, published 2023) come the findings set out here.

T1 sequence (Q00987 1-138 limits assumed): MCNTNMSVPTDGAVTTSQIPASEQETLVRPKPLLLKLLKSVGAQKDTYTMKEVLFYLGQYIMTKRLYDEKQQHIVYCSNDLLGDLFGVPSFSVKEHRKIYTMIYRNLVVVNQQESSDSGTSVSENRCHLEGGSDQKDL
T3 sequence (Q07817 1-209): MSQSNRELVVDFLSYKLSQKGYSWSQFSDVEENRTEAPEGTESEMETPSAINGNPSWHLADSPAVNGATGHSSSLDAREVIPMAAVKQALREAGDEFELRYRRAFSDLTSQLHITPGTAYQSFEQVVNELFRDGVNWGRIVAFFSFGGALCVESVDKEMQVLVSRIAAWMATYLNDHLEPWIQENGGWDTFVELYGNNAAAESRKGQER
T2 sequence (Q07820 172-327 limits assumed): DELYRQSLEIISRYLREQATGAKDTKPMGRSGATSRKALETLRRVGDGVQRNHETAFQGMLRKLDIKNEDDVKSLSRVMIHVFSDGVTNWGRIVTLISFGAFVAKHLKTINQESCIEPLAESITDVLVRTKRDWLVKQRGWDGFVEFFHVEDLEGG

B1: SP590 (Table 1b): Ac-LTF$rAYWAQL$A-NH2 (peptide)
peptide: Ac-LTF[R8]AYWAQL[S5]A-NH2
modifications: staple 4-11
SMILES: CC(=O)N[C@@H](CC(C)C)C(=O)N[C@H](C(=O)N[C@@H](Cc1ccccc1)C(=O)N[C@]1(C)CCCCCCC=CCCC[C@@](C)(C(=O)N[C@@H](C)C(N)=O)NC(=O)[C@H](CC(C)C)NC(=O)[C@H](CCC(N)=O)NC(=O)[C@H](C)NC(=O)[C@H](Cc2c[nH]c3ccccc23)NC(=O)[C@H](Cc2ccc(O)cc2)NC(=O)[C@H](C)NC1=O)[C@@H](C)O
For orientation: IC50 means the concentration at which inhibition is half-maximal. A lower IC50 goes with higher potency. In turn, B1 returned an IC50 with MDM2 of 141 nM.

B2: SP-962 (peptidomimetic macrocycle derived from the MCL-1/BCL-XL/BCL-2-binding helix of BIM) (peptide)
peptide: Ac-IWIAQALR[R8][hLeu]GDAFN[S5]Y[Phe(4-F)]A-NH2
modifications: staple 9-16
SMILES: CC[C@H](C)[C@H](NC(C)=O)C(=O)N[C@@H](Cc1c[nH]c2ccccc12)C(=O)N[C@H](C(=O)N[C@@H](C)C(=O)N[C@@H](CCC(N)=O)C(=O)N[C@@H](C)C(=O)N[C@@H](CC(C)C)C(=O)N[C@@H](CCCNC(=N)N)C(=O)N[C@]1(C)CCCCCCC=CCCC[C@@](C)(C(=O)N[C@@H](Cc2ccc(O)cc2)C(=O)N[C@@H](Cc2ccc(F)cc2)C(=O)N[C@@H](C)C(N)=O)NC(=O)[C@H](CC(N)=O)NC(=O)[C@H](Cc2ccccc2)NC(=O)[C@H](C)NC(=O)[C@H](CC(=O)O)NC(=O)CNC(=O)[C@H](CCC(C)C)NC1=O)[C@@H](C)CC
notes: Stapled BIM BH3 peptide, 19 residues
In the case of B2, the IC50 in test [1] was 27 nM; with BCL-XL, 13 nM. Ac-LTF[R8]AYWAQL[S5]AAAAAA[dA]-NH2 (staple 4-11; also: single isomer iso1) [SP317: Ac-LTF$r8AYWAQL$AAAAAAa-NH2 (iso1)] showed an IC50 with MDM2 of 10 nM.

B3: SP-815 (peptidomimetic macrocycle derived from the MCL-1/BCL-XL/BCL-2-binding helix of BIM) (peptide)
peptide: Ac-IWIAQALR[R8]IGDAFN[S5]YYA-NH2
modifications: staple 9-16
SMILES: CC[C@H](C)[C@H](NC(C)=O)C(=O)N[C@@H](Cc1c[nH]c2ccccc12)C(=O)N[C@H](C(=O)N[C@@H](C)C(=O)N[C@@H](CCC(N)=O)C(=O)N[C@@H](C)C(=O)N[C@@H](CC(C)C)C(=O)N[C@@H](CCCNC(=N)N)C(=O)N[C@]1(C)CCCCCCC=CCCC[C@@](C)(C(=O)N[C@@H](Cc2ccc(O)cc2)C(=O)N[C@@H](Cc2ccc(O)cc2)C(=O)N[C@@H](C)C(N)=O)NC(=O)[C@H](CC(N)=O)NC(=O)[C@H](Cc2ccccc2)NC(=O)[C@H](C)NC(=O)[C@H](CC(=O)O)NC(=O)CNC(=O)[C@H]([C@@H](C)CC)NC1=O)[C@@H](C)CC
notes: as for B2
In the case of B3, the 50% inhibitory concentration (IC50) in test [1] is 8.4 nM; with BCL-XL it was 22.4 nM. In the case of Ac-LTF[R8]AYWAQL[S5]AA[Nle]A-NH2 (staple 4-11, i, i+7 stapled p53-derived macrocycle) [SP68: Ac-LTF$r8AYWAQL$AANleA-NH2], the IC50 in the test with MDM2 came to 29 nM.

B4: SP-810 (peptidomimetic macrocycle derived from the MCL-1/BCL-XL/BCL-2-binding helix of BIM) (peptide)
peptide: Ac-IWIAQELR[R8]IGDEFN[S5]YYARR-NH2
modifications: staple 9-16
SMILES: CC[C@H](C)[C@H](NC(C)=O)C(=O)N[C@@H](Cc1c[nH]c2ccccc12)C(=O)N[C@H](C(=O)N[C@@H](C)C(=O)N[C@@H](CCC(N)=O)C(=O)N[C@@H](CCC(=O)O)C(=O)N[C@@H](CC(C)C)C(=O)N[C@@H](CCCNC(=N)N)C(=O)N[C@]1(C)CCCCCCC=CCCC[C@@](C)(C(=O)N[C@@H](Cc2ccc(O)cc2)C(=O)N[C@@H](Cc2ccc(O)cc2)C(=O)N[C@@H](C)C(=O)N[C@@H](CCCNC(=N)N)C(=O)N[C@@H](CCCNC(=N)N)C(N)=O)NC(=O)[C@H](CC(N)=O)NC(=O)[C@H](Cc2ccccc2)NC(=O)[C@H](CCC(=O)O)NC(=O)[C@H](CC(=O)O)NC(=O)CNC(=O)[C@H]([C@@H](C)CC)NC1=O)[C@@H](C)CC
notes: Stapled BIM BH3 peptide, 21 residues
The molecule B4 had an IC50 with BCL-XL of 9.2 nM.

B5: SP-809 (peptidomimetic macrocycle derived from the MCL-1/BCL-XL/BCL-2-binding helix of BIM) (peptide)
peptide: Ac-IWIAQALR[R8]IGDEFN[S5]YYARR-NH2
modifications: staple 9-16
SMILES: CC[C@H](C)[C@H](NC(C)=O)C(=O)N[C@@H](Cc1c[nH]c2ccccc12)C(=O)N[C@H](C(=O)N[C@@H](C)C(=O)N[C@@H](CCC(N)=O)C(=O)N[C@@H](C)C(=O)N[C@@H](CC(C)C)C(=O)N[C@@H](CCCNC(=N)N)C(=O)N[C@]1(C)CCCCCCC=CCCC[C@@](C)(C(=O)N[C@@H](Cc2ccc(O)cc2)C(=O)N[C@@H](Cc2ccc(O)cc2)C(=O)N[C@@H](C)C(=O)N[C@@H](CCCNC(=N)N)C(=O)N[C@@H](CCCNC(=N)N)C(N)=O)NC(=O)[C@H](CC(N)=O)NC(=O)[C@H](Cc2ccccc2)NC(=O)[C@H](CCC(=O)O)NC(=O)[C@H](CC(=O)O)NC(=O)CNC(=O)[C@H]([C@@H](C)CC)NC1=O)[C@@H](C)CC
notes: as for B4
In the case of B5, the half-maximal inhibitory concentration (IC50) in test [1] stood at 10.6 nM; with BCL-XL, 3.9 nM.
